Source: article PMC9316690

What was measured:
[1] = target: EFm1 D166Q, full-length chain (E. faecalis phage IME-EF1); assay: crystal structure; EFm1_(D166Q) 15 mg/mL, sitting drop, 16 °C; 2.2 Å; phases by Se-Met SAD
[2] = target: C-terminal domain EFm1 166-237 aa (E. faecalis phage IME-EF1); assay: crystal structure; EFm1_(166–237 aa) 10 mg/mL, sitting drop, 16 °C; 2.0 Å; eight monomers in the asymmetric unit

Substance | stoichiometry N (CTD fragments per full-length chain) [1] | stoichiometry N [2]
8 kDa C-terminal fragment of EFm1, translated from the alternative start codon M168 (domain or fragment) | 3 | –
C-terminal domain EFm1 166-237 aa (domain or fragment) | – | 4
